From patent publication US20230034906A1 (TRINOMAB BIOTECH, published 2023)
Changes are numbered by the printed parent chain.

What was measured:
Experiment in all cases: indirect ELISA, antibody titrated on gB glycoprotein mutant
[1] = target: T1, gB_Towne protein with N409 mutated into glutamine (human cytomegalovirus, strain Towne, UniProt F5HB53 25-700)
T1 chain: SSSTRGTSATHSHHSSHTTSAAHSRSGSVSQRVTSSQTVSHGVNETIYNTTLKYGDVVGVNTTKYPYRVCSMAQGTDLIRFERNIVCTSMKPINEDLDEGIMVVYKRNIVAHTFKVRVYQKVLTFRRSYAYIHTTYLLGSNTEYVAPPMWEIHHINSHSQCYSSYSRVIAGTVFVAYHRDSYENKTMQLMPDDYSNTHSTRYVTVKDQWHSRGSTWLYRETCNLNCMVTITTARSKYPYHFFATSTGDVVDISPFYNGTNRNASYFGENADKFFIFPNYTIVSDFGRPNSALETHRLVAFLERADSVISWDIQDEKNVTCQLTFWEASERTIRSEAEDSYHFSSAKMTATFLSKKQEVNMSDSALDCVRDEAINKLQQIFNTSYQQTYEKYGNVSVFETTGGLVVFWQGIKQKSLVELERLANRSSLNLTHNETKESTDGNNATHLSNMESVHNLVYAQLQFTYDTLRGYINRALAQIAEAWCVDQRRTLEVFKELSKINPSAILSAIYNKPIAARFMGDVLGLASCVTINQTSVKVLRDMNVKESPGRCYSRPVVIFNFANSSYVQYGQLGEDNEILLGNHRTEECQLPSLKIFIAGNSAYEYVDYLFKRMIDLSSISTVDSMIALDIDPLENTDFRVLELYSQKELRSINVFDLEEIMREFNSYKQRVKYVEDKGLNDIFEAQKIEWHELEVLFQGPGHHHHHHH

[2] = target: T2, gB_Towne protein with N456 mutated into glutamine (human cytomegalovirus, strain Towne, UniProt F5HB53 25-700)
T2 chain: T1 chain with Q385N, N432Q

[3] = target: T3, gB_Towne protein with N405 mutated into glutamine (human cytomegalovirus, strain Towne, UniProt F5HB53 25-700)
T3 chain: T1 chain with N381Q, Q385N

[4] = target: T4, gB_Towne protein with N281 mutated into glutamine (human cytomegalovirus, strain Towne, UniProt F5HB53 25-700)
T4 chain: T1 chain with N257Q, Q385N

Measured: binding result

B1: TRN1019 (antibody, V domains shown)
VH: QVQLVQSGAEVKKPGESLKISCKGSGYTFTNYWIGWVRQMPGAGLEWMAIIFPRDSYSAYSPSFQGRVTISVDKSISTAYLHWSSLEASDTAVYYCAIYNDLRSGNSWGQGTPLIVSS
VL: DIQMTQSPSSLSASVGDRVTITCRASQSITKYLNWYQQKPGRAPKLLIHTTSTLQSGVPSRFSGSGSGTDFTLTISSLQLEDFGTYYCQQSFSTLWTFGQGTKLDIKR
notes: Fully human antibody; kappa light chain
binds: [1] | [2] | [3] | [4]
